Laboratory results reported in paper PMC3253889 (Proteomics, 2011).

B1: LT-3F12 anti-LT-α monoclonal antibody purified from mouse ascites (antibody, V domains shown)
VH: QGQLQQSGAELMKPGASVKISCKATGYTFSSYWIEWVKQRPGHGLEWIGEISPGSGSTNYNEEFKGKATFTADKSSNTAYIQLSSLTSEDSAVYYCADGYHGYWGQGTTLTVSS
VL: DIVMSQSPSSLAVSVGEKVTMSCKSSQSLLYSTNQKNFLAWYQQKPGQSPKLLIYWASTRDSGVPDRFTGSGSGTDFTLTISSVKAEDLAVYYCQQYYSYPRTFGGGTKLEIK
B2: LT-3F12 rescued recombinant chimeric antibody (antibody, V domains shown)
VH: B1 VH
VL: B1 VL

Key:
human LT-α3-biotin = human LT-α3-biotin (human, UniProt P01374, biotin); test: ELISA
[1] = target: T1, human lymphotoxin alpha homo-trimer (LT-α3) (human, UniProt P01374); test: SPR
[2] = target: T1, human lymphotoxin alpha homo-trimer …; test: ELISA

T1 sequence (P01374 35-205): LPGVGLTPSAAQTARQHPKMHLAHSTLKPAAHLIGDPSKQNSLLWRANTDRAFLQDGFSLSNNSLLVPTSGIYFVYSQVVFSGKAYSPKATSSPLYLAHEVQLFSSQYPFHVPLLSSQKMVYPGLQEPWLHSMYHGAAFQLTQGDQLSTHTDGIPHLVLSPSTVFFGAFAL
Sequence of human LT-α3-biotin (P01374 35-205): as above

Binder | IC50 (human LT-α3-biotin) [nM] | Kd [1] [nM] | EC50 [2] [nM]
B1 | 47 | 0.3 | 0.018
B2 | – | 0.3 | 0.037
